“Also recorded” adds a separate entry of the source.
Legend:
[1] = Blood chemistry and blood cell counts after i.v. injection; format: in vivo, hDSG2 transgenic mice; settings: for Blood chemistry / Blood cell counts: after i.v. injection; for Blood cell counts: N=3; for Time of nadir of lymphocyte and platelet counts: p.i.
Protocol: FIG. 11. Pharmacokinetics, toxicity, and immunogenicity of JO-4. A) Serum clearance of JO-1 and JO-4. hDSG2 transgenic mice with subcutaneous TC1-hDSG2 tumors (˜600 mm^3) were intravenously injected with JO-1 or JO-4 (2 mg/kg) and serum samples were analyzed for by ELISA. N=3. Note that the y-axis has a log scale. B) Lymphocyte and platelet counts in hDSG2/TC1-hDSG2 transgenic mice after JO-1 or JO-4 injection. N=3. C) Therapy studies in immunocompetent hDSG2 transgenic mice with TC1-hDSG2 tumors. When tumors reached a volume of ˜80 mm^3, JO-1 or JO-4 (2 mg/kg) or PBS was injected intravenously followed one hour later by PLD/Doxil (i.v. 1.5 mg/kg). Treatment was repeated as indicated by arrows. Tumors were then allowed to re-grow for about two weeks. From day 15 on serum anti-JO-1/J)-4 antibodies were detectable by ELISA. Two more treatment cycles were performed at day 28 and day 35. […] The difference between JO-1/PLD vs JO-4/PLD is significant from day 31 on. N=10.
Two of the affinity enhanced version of JO-1, Y293D and V250F were analyzed in in vivo assay. We called these mutants JO-2 and JO-4, respectively. The first study was performed in a xenograft model derived from A549 cells similar to the study described for FIG. 5B. […] Additional studies were performed in xenograft tumors derived from ovc316 cells (30, 32). Ovc316 cells are Her2/neu positive epithelial tumor cells derived from an ovarian cancer biopsy. These cells can undergo EMT and the reverse process, mesenchymal-to-epithelial-transition (MET), under specific conditions in vitro and in vivo. A subfraction of ovc316 cells that is positive for Nanog, CD133, and E-cadherin is enriched for cancer stem cells, i.e. self-renewing cells with pluripotent potential and tumor forming ability (30). Ovc316 cells therefore closely model the heterogeneity and plasticity seen in tumors in situ. […] Finally, we tested JO-4 in a model for triple-negative breast cancer (TNBC). TNBC is characterized by a lack or minimal expression of estrogen receptor (ER), progesterone receptor (PR) and the absence of Her2/neu overexpression. TNBC accounts for 15% of all breast cancers. Overall survival is poor compared with that in patients who have other phenotypes. A characteristic feature of TNBC is high levels of DSG2 and epithelial junctions. Promising clinical results in the treatment of TNBS have been achieved with nanoparticle, albumin-conjugated paclitaxel (nab-paclitaxel/Abraxane™) alone or in combination with the EGFR-targeting mAb cetuximab/Erbitux™ (38). […] Because of its therapeutic relevance, we further studied JO-4 in an adequate mouse tumor model. […] These mice were subcutaneously implanted with syngeneic TC1-hDSG tumors. When tumors reached a volume of ˜600 mm^3, JO-1 or JO-4 was intravenously injected for safety and efficacy studies. […] After one hour post-injection JO-1 and JO-4 concentration reached a plateau with ˜100 ng/ml. We also analyzed hematological parameters after i.v. JO-1 and JO-4 injection.

[2] = tested on: MDA-MB-231 orthotopic TNBC tumors; experiment: Enhancement of nab-paclitaxel/cetuximab therapy in triple negative breast cancer model; format: in vivo, CB17 SCID-beige mice; settings: 2 mg/kg i.v. 1 hour before cetuximab 10 mg/kg i.p. and nab-paclitaxel 5 mg/kg i.v., weekly; N=10
Protocol: FIG. 10. Combination of affinity-enhanced JO-1 versions with chemotherapy. A) Enhancement of irinotecan (I) therapy. The experimental setting was the same as in FIG. 5B. […] N=5. […] Mammary fat pad tumors were established from primary ovarian cancer ovc316 cells. Treatment was started when tumors reached a volume of 100 mm^3 Mice were injected intravenously with 2 mg/kg JO-1 or with 0.5 mg/kg JO-4, followed by an intravenous injection of PEGylated liposomal doxorubicin (PLD) (1 mg/kg) one hour later. Treatment was repeated weekly. […] A total of 4×10^6 TNBC MDA-MB-231 cells were injected into the mammary fat pad of CB17 SCID-beige mice. JO-4 (2 mg/kg) was intravenously injected 1 hour before the application of cetuximab (C) (10 mg/kg, i.p.) and nab-paclitaxel (nab-P) (5 mg/kg, i.v). Treatment was given weekly. N=10 P<0.01 at day 25 for nab-P+C vs JO-4+nab-P+C.
A549, MDA-MB-231, and ovc316 xenograft tumors were established by injection of the corresponding tumor cells into the mammary fat pad (1:1 with Matrigel) of CB17 mice. TC1-DSG2 tumors were established by subcutaneous injection of TC1-DSG2 cells into DSG2 transgenic mice. […] Tumor volumes were measured three times a week. […]

| Molecule | Blood chemistry [1] | Blood cell counts [1] | Time of nadir of lymphocyte and platelet counts [1] [h] | Enhancement of nab-paclitaxel/cetuximab therapy [2] | Lymphocyte and platelet counts compared with JO-1 ([1]; nadir at 24 hours p.i. and recovery) |
| --- | --- | --- | --- | --- | --- |
| JO-1: recombinant protein with the Ad3 fiber knob and a domain for self-dimerization of trimeric knobs (SEQ ID NO:27) (protein) MKVSALKEKVSALKEKVSALKEKVSALKEKVSALKEGSGGGSGGGSGGGSNSIALKNNTLWTGPKPEANCIIEYGKQNPDSKLTLILVKNGGIVNGYVTLMGASDYVNTLFKNKNVSINVELYFDATGHILPDSSSLKTDLELKYKQTADFSARGFMPSTTAYPFVLPNAGTHNENYIFGQCYYKASDGALFPLEVTVMLNKRLPDSRTSYVMTFLWSLNAGLAPETTQATLITSPFTFSYIREDD | did not show abnormal changes | normal except for lymphocyte and platelet number, which decreased early after injection | 24 |  |  |
| JO-4 (protein) MKVSALKEKVSALKEKVSALKEKVSALKEKVSALKEGSGGGSGGGSGGGSNSIALKNNTLWTGPKPEANCIIEYGKQNPDSKLTLILVKNGGIVNGYVTLMGASDYVNTLFKNKNVSINVELYFDATGHILPDSSSLKTDLELKYKQTADFSARGFMPSTTAYPFVLPNAGTHNENFIFGQCYYKASDGALFPLEVTVMLNKRLPDSRTSYVMTFLWSLNAGLAPETTQATLITSPFTFSYIREDD | did not show abnormal changes | normal except for lymphocyte and platelet number, which decreased early after injection | 24 | significantly increased nab-paclitaxel/cetuximab therapy; also recorded: enhances therapy | significantly lower numbers; also recorded: returned to normal levels faster |
